Laboratory results from article PMC9652331.

Assays:
Assay in all cases: EMSA
[1] = target: HAKAI;WTAP;VIRMA;ZC3H13 (1106-1668) (Homo sapiens;Homo sapiens;Homo sapiens;Homo sapiens) (UniProt Q75N03+Q15007+Q69YN4+Q5T200); settings: HWVZ; EMSA: 5 nM FAM-RNA, 20 mM HEPES pH 7.5, 100 mM KCl, 10% glycerol, 1 mM DTT, 25 C, 20 min; 8% native PAGE in 1x TBE at 4 C; Kd from loss of free RNA, Hill fit …
[2] = target: WTAP;VIRMA;ZC3H13 (1106-1668) (Homo sapiens;Homo sapiens;Homo sapiens) (UniProt Q15007+Q69YN4+Q5T200); settings: WVZ (no HAKAI); EMSA: 5 nM FAM-RNA, 20 mM HEPES pH 7.5, 100 mM KCl, 10% glycerol, 1 mM DTT, 25 C, 20 min; 8% native PAGE in 1x TBE at 4 C; Kd from loss of free RNA, Hill fit …
[3] = target: HAKAI;WTAP;VIRMA (Homo sapiens;Homo sapiens;Homo sapiens) (UniProt Q75N03+Q15007+Q69YN4); settings: HWV (no ZC3H13); EMSA: 5 nM FAM-RNA, 20 mM HEPES pH 7.5, 100 mM KCl, 10% glycerol, 1 mM DTT, 25 C, 20 min; 8% native PAGE in 1x TBE at 4 C; Kd from loss of free RNA, Hill fit …
[4] = target: WTAP;VIRMA (Homo sapiens;Homo sapiens) (UniProt Q15007+Q69YN4); settings: WV; EMSA: 5 nM FAM-RNA, 20 mM HEPES pH 7.5, 100 mM KCl, 10% glycerol, 1 mM DTT, 25 C, 20 min; 8% native PAGE in 1x TBE at 4 C; Kd from loss of free RNA, Hill fit …
Chain of WTAP;VIRMA (Homo sapiens;Homo sapiens) (Q15007 whole entry, chain 1 of 2): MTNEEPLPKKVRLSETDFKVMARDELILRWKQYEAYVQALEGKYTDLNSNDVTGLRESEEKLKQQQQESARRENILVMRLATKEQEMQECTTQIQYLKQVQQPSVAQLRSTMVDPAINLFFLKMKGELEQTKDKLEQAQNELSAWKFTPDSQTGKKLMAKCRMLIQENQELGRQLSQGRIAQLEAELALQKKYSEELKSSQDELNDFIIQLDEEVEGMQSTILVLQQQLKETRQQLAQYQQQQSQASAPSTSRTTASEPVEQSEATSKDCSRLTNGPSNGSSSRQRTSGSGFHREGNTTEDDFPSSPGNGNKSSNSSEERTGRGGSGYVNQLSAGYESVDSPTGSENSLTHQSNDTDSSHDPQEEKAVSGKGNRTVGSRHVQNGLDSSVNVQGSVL
Chain of WTAP;VIRMA (Homo sapiens;Homo sapiens) (Q69YN4 whole entry, chain 2 of 2): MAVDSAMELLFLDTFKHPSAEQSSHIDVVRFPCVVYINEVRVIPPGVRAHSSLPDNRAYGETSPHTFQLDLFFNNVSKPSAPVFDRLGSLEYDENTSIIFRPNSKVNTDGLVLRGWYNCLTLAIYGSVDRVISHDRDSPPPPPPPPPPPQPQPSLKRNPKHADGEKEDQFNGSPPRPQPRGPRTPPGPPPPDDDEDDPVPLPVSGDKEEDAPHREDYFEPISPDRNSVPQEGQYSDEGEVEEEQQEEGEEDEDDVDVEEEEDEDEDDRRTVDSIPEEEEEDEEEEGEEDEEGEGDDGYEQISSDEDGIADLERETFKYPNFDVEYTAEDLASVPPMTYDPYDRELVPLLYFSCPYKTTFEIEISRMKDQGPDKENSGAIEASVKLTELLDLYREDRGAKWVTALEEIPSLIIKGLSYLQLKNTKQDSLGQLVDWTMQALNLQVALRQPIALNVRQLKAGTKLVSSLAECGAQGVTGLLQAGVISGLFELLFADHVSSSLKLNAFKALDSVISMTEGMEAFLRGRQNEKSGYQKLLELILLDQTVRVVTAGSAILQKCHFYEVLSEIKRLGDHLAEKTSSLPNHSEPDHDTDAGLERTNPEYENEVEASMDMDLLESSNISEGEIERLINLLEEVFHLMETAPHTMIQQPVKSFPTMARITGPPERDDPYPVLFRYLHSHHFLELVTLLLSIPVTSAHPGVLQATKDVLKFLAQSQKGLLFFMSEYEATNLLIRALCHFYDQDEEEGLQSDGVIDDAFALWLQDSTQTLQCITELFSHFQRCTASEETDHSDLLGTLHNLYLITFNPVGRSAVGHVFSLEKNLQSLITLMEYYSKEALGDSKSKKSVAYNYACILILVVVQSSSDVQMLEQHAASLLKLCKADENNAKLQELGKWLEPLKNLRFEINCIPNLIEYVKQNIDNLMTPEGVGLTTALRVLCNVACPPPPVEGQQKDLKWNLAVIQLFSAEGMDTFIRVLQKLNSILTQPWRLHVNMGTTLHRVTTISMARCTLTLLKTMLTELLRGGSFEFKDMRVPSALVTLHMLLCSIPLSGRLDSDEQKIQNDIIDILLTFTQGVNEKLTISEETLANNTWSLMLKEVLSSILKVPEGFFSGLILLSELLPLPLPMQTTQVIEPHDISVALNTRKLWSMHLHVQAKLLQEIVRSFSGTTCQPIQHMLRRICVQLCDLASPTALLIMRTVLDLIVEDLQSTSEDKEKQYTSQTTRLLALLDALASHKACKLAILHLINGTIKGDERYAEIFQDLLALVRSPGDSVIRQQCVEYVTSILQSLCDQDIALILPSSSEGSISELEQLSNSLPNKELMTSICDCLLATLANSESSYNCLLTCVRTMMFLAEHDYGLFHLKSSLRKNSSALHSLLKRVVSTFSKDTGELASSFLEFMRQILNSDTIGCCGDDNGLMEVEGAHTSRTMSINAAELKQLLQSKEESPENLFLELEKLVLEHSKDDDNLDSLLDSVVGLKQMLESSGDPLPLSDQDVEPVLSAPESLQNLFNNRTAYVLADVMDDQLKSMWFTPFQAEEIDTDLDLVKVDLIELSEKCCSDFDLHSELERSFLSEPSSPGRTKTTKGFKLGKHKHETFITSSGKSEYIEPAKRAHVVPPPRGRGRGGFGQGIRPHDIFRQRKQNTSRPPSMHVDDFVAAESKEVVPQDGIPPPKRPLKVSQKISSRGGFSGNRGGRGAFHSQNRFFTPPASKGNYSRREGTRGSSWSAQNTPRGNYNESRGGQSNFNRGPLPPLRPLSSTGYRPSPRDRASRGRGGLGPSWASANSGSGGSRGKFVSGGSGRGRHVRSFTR

Chain of WTAP;VIRMA;ZC3H13 (1106-1668) (Homo sapiens;Homo sapiens;Homo sapiens) (Q15007 whole entry, chain 1 of 3): as the sequence (Q15007 whole entry, chain 1 of 2) above
Chain of WTAP;VIRMA;ZC3H13 (1106-1668) (Homo sapiens;Homo sapiens;Homo sapiens) (Q69YN4 whole entry, chain 2 of 3): as the sequence (Q69YN4 whole entry, chain 2 of 2) above
Chain of WTAP;VIRMA;ZC3H13 (1106-1668) (Homo sapiens;Homo sapiens;Homo sapiens) (Q5T200 1106-1668, chain 3 of 3): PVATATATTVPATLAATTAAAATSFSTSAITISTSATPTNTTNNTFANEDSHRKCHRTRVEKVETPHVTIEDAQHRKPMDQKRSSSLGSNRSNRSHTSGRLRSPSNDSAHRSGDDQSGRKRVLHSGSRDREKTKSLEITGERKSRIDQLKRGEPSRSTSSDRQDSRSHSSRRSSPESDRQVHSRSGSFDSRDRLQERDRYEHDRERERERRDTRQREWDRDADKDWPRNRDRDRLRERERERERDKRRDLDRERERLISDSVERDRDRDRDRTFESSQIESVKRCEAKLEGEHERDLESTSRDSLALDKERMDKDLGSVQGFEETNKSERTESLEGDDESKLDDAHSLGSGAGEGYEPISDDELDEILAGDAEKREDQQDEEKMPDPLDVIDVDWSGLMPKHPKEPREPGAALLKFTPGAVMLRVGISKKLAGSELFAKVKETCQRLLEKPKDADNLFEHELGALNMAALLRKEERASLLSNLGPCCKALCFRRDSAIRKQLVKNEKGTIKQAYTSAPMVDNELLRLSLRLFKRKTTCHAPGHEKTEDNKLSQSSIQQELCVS
Chain of HAKAI;WTAP;VIRMA (Homo sapiens;Homo sapiens;Homo sapiens) (Q75N03 whole entry, chain 1 of 3): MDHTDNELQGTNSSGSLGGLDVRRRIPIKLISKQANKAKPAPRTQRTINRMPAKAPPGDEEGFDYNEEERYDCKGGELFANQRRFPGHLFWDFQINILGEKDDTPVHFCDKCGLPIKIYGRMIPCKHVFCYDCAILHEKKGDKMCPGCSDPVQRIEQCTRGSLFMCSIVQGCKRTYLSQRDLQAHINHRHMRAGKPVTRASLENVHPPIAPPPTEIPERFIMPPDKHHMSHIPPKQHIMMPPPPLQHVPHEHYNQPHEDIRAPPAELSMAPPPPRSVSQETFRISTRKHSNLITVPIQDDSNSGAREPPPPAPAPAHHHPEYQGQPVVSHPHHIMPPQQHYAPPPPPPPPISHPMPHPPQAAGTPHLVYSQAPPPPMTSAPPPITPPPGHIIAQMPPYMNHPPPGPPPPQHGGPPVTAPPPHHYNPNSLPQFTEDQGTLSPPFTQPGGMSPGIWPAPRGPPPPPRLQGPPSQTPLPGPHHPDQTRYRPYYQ
Chain of HAKAI;WTAP;VIRMA (Homo sapiens;Homo sapiens;Homo sapiens) (Q15007 whole entry, chain 2 of 3): as the sequence (Q15007 whole entry, chain 1 of 2) above
Chain of HAKAI;WTAP;VIRMA (Homo sapiens;Homo sapiens;Homo sapiens) (Q69YN4 whole entry, chain 3 of 3): as the sequence (Q69YN4 whole entry, chain 2 of 2) above
Chain of HAKAI;WTAP;VIRMA;ZC3H13 (1106-1668) (Homo sapiens;Homo sapiens;Homo sapiens;Homo sapiens) (Q75N03 whole entry, chain 1 of 4): as the sequence (Q75N03 whole entry, chain 1 of 3) above
Chain of HAKAI;WTAP;VIRMA;ZC3H13 (1106-1668) (Homo sapiens;Homo sapiens;Homo sapiens;Homo sapiens) (Q15007 whole entry, chain 2 of 4): as the sequence (Q15007 whole entry, chain 1 of 2) above
Chain of HAKAI;WTAP;VIRMA;ZC3H13 (1106-1668) (Homo sapiens;Homo sapiens;Homo sapiens;Homo sapiens) (Q69YN4 whole entry, chain 3 of 4): as the sequence (Q69YN4 whole entry, chain 2 of 2) above
Chain of HAKAI;WTAP;VIRMA;ZC3H13 (1106-1668) (Homo sapiens;Homo sapiens;Homo sapiens;Homo sapiens) (Q5T200 1106-1668, chain 4 of 4): as the sequence (Q5T200 1106-1668, chain 3 of 3) above

In the case of “GGCCCCUCCAUCGUCCACCGCAAAUGCUUCUAGGCGGACUAUGACUUAGUUGCGUUACACCCUUUCUUGACAAAACCUAACUUGCACAGAAAACA [ACTB-1 RNA]”, the Kd [1] is reported as 214 nM, the Kd [2] is reported as 256 nM and the Kd [3] is reported as 563 nM. It also gave a Kd [4] of 826 nM.
